Reference: patent publication US20150166606A1 (RA PHARMACEUTICALS, published 2015)
Like-named read-outs stand apart in the source and are kept apart here. Numbered stars: 1 amine (or outer) side, 2 acyl side, 3 side chain; on linkers, the order of the positions; unused ones are H or OH. Bridge positions count the residues as written; N and C are the ends. Square brackets hold non-standard residues; d marks the D form. Ends that are not written are not given here. * marks the point of attachment. mXylyl = xylyl linker from dibromoxylene joining the two cysteines; Trp(7-aza) = N[C@@H](Cc1c[nH]c2ncccc12)C(=O)O; des‑NH2 = missing amino-terminal amine group; Gly(octyl) = CCCCCCCC[C@H](N)C(=O)O; Gly(cPent) = N[C@H](C(=O)O)C1CCCC1; pXylylene = c1cc(C[*:2])ccc1C[*:1]; Gly(cPr) = N[C@H](C(=O)O)C1CC1; dPhg = N[C@@H](C(=O)O)c1ccccc1; Chg = N[C@H](C(=O)O)C1CCCCC1; Phg = N[C@H](C(=O)O)c1ccccc1; Tle = CC(C)(C)[C@H](N)C(=O)O; Tranexamic = tranexamic acid; NMeV = CN[C@H](C(=O)O)C(C)C; oXylyl = ortho-xylyl linker; NMeC = CN[C@@H](CS)C(=O)O; NMeS = CN[C@@H](CO)C(=O)O; azaTrp = not defined here; Heptanoyl = CCCCCCC(=O)*; Ac5c = NC1(C(=O)O)CCCC1; Nva = CCC[C@H](N)C(=O)O; Thp = NC1(C(=O)O)CCOCC1; Ac4c = NC1(C(=O)O)CCC1; Ac3c = NC1(C(=O)O)CC1; Aib = CC(C)(N)C(=O)O; AEA = NCCOCC(=O)O; Mpa = O=C(O)CCS

B1: R2070 (peptide)
peptide: Ac-CAS[Phg]CR[Gly(cPr)]-NH2
modifications: linker 1-5 via mXylyl; not fully specified (residue 2); printed as [mXylyl(1,5)]Ac-C-a-S-Phg-CR-Cppg-NH2
B2: R2075 (peptide)
peptide: {des‑NH2}-CAA[Phg]CR[Tle]-NH2
modifications: linker 1-5 via mXylyl; not fully specified (residue 1); printed as [mXylyl(1,5)](des-NH2)C-AA-Phg-CR-Tbg-NH2
B3: R2084 (peptide)
peptide: {des‑NH2}-C[Phg]CR[Tle]-NH2
modifications: linker 1-3 via pXylylene; not fully specified (residue 1); printed as [pXylyl(1,5)](des-NH2)C-Phg-CR-Tbg-NH2
B4: R2073 (peptide)
peptide: {des‑NH2}-C[Gly(octyl)]S[Phg]CR[Tle]-NH2
modifications: linker 1-5 via mXylyl; not fully specified (residue 1); printed as [mXylyl(1,5)](des-NH2)C-OctG-S-Phg-CR-Tbg-NH2
B5: R2071 (peptide)
peptide: Ac-CAS[Phg]CR[Chg]-NH2
modifications: linker 1-5 via mXylyl; not fully specified (residue 2); printed as [mXylyl(1,5)]Ac-C-a-S-Phg-CR-Chg-NH2
B6: R2068 (peptide)
peptide: Heptanoyl-CA[NMeS][Phg]CR[Tle]-NH2
modifications: linker 1-5 via mXylyl; not fully specified (residue 2); printed as [mXylyl(1,5)]Heptanoyl-C-a-nMeS-Phg-C-R-Tbg-NH2
B7: R2083 (peptide)
peptide: {des‑NH2}-C[Phg]CR[Tle]-NH2
modifications: linker 1-3 via oXylyl; not fully specified (residue 1); printed as [oXylyl(1,5)](des-NH2)C-Phg-CR-Tbg-NH2
B8: R2069 (peptide)
peptide: Heptanoyl-CA[NMeS][dPhg]CR[Tle]-NH2
modifications: linker 1-5 via mXylyl; not fully specified (residue 2); printed as [mXylyl(1,5)]Heptanoyl-C-a-nMeS-(D)Phg-C-R-Tbg-NH2
B9: R2072 (peptide)
peptide: {des‑NH2}-CAAICRV-NH2
modifications: linker 1-5 via mXylyl; not fully specified (residue 1); printed as [mXylyl(1,5)](des-NH2)C-AAICRV-NH2
B10: R2080 (peptide)
peptide: [Mpa][code a]S[Phg]C[azaTrp][Tle]-NH2
modifications: linker 1-5 via mXylyl; reading uncertain; also: printed as [mXylyl(1,5)](des-NH2)C-a-S-Phg-C-azaTrp-Tbg-NH2
B11: R2081 (peptide)
peptide: {des‑NH2}-C[Tranexamic][dPhg]CR[Tle]-NH2
modifications: linker 1-4 via mXylyl (inferred); not fully specified; printed as [mXylyl(1,5)](des-NH2)C-Tranexamic-(D)Phg-CR-Tbg-NH2
B12: R2090 (peptide)
peptide: {des‑NH2}-C[Tranexamic][Phg]CR[Tle]-NH2
modifications: linker 1-4 via mXylyl (inferred); not fully specified; printed as [mXylyl(1,5)](des-NH2)C-Tranexamic-Phg-CR-Tbg-NH2
B13: R2076 (peptide)
peptide: {des‑NH2}-CGA[Phg]CR[Tle]-NH2
modifications: linker 1-5 via mXylyl; not fully specified (residue 1); printed as [mXylyl(1,5)](des-NH2)C-GA-Phg-CR-Tbg-NH2

Tests used:
[1] = target: T1, Activated human plasma kallikrein (Enzyme Research Laboratories, HPKa 1303) (human, UniProt P03952 20-638); experiment: cell-based or functional assay
T1 sequence (P03952 20-638 limits assumed): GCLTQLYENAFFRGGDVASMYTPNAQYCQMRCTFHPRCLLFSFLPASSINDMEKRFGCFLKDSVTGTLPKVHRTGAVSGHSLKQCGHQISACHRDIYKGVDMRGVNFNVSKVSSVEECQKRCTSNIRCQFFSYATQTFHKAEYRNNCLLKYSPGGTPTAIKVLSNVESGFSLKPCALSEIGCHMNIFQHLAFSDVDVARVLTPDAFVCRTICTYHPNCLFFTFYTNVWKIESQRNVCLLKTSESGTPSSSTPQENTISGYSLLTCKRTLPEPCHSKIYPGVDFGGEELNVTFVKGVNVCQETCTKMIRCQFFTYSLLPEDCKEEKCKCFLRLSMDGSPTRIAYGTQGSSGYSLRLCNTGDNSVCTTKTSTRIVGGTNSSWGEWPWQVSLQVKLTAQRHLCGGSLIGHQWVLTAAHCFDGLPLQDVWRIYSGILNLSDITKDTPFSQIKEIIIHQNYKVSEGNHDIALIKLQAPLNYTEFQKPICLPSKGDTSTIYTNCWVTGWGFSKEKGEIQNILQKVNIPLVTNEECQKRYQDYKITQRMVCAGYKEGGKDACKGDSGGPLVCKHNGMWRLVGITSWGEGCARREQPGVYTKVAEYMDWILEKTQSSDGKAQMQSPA

[2] = target: T1, Activated human plasma kallikrein …; experiment: cell-based or functional assay; remark: listed apart in the source

Row | Binder | Avg. IC50 [1] | Avg. IC50 [2]
1 | {des‑NH2}-C[Ac5c]A[dPhg]CR[Tle]-NH2 (linker 1-5 via mXylyl) [R2149] | 177 nM | 
2 | {des‑NH2}-C[Ac5c]A[Phg]CR[Tle]-NH2 (linker 1-5 via mXylyl) [R2150] | 0.764 nM | 
3 | B1 |  | 118 nM
4 | {des‑NH2}-C[Thp]A[Chg]CR[Tle]-NH2 (linker 1-5 via mXylyl) [R2100] |  | 1.5 nM
5 | MCESICR[NMeV]-NH2 (linker 2-6 via mXylyl) [R2074] |  | 11600 nM
6 | {des‑NH2}-C[Aib]A[Chg]CR-{3,3‑dimethylbutan‑2‑amine} (linker 1-5 via mXylyl) [R2152] | 319 nM | 
7 | MCESICRELRYSE-NH2 (linker 2-6 via mXylyl) [R2086] |  | 8930 nM
8 | Ac-MCESICRV-NH2 (linker 2-6 via mXylyl) [R2008] |  | 10.2 nM
9 | MCESNCRV-NH2 (linker 2-6 via mXylyl) [R2088] |  | 2040 nM
10 | {des‑NH2}-C[Aib]A[Chg]CR[Tle]-NH2 (linker 1-5 via mXylyl) [R2091] |  | 3.2 nM
11 | {des‑NH2}-C[Aib]A[Phg]CR[Tle]LRYSE-NH2 (linker 1-5 via mXylyl) [R2099] |  | 0.1 nM
12 | B2 |  | 2.6 nM
13 | B3 |  | 1800 nM
14 | {des‑NH2}-C[Thp]A[dPhg]CR[Tle]-NH2 (linker 1-5 via mXylyl) [R2094] |  | 46.9 nM
15 | CESICRV-NH2 (linker 1-5 via mXylyl) [R2085] |  | 21.9 nM
16 | B4 |  | 18.6 nM
17 | B5 |  | 1920 nM
18 | {des‑NH2}-C[Aib]A[dPhg]CR[Tle]LRYSE-NH2 (linker 1-5 via mXylyl) [R2098] |  | 22.4 nM
19 | {des‑NH2}-C[Aib]A[Phg]CR[Tle]-NH2 (linker 1-5 via mXylyl) [R2078] |  | 2.8 nM
20 | {des‑NH2}-C[Ac4c]A[Phg]CR[Tle]-NH2 (linker 1-5 via mXylyl) [R2097] |  | 2 nM
21 | {des‑NH2}-C[Aib]A[Chg]CR-OH (linker 1-5 via mXylyl) [R2153] | > 8880 nM | 
22 | MCESICRE-NH2 (linker 2-6 via mXylyl) [R2087] |  | > 16600 nM

Row | Binder | Avg. IC50 [1] | Avg. IC50 [2]
23 | B6 |  | 26.8 nM
24 | MCES[Gly(cPent)]CRV-NH2 (linker 2-6 via mXylyl) [R2077] |  | 19.7 nM
25 | B7 |  | > 8900 nM
26 | {des‑NH2}-C[Thp]A[Chg]C[Trp(7-aza)][Tle]-NH2 (linker 1-5 via mXylyl) [R2147] | > 2190 nM | 
27 | B8 |  | 903 nM
28 | {des‑NH2}-C[Ac4c]A[dPhg]CR[Tle]-NH2 (linker 1-5 via mXylyl) [R2096] |  | 748 nM
29 | B9 |  | 13 nM
30 | [Mpa][code a]S[Chg]CR[Tle]-NH2 (linker 1-5 via mXylyl) [R2082] |  | 25.8 nM
31 | B10 |  | 13200 nM
32 | XSICRV (not fully specified; [mXylyl(1,4)](2-SAc)-SICRV-NH2) [R2154] | > 7930 nM | 
33 | {des‑NH2}-C[Ac3c]A[dPhg]CR[Tle]-NH2 (linker 1-5 via mXylyl) [R2092] |  | 3960 nM
34 | {des‑NH2}-C[Ac3c]A[Phg]CR[Tle]-NH2 (linker 1-5 via mXylyl) [R2093] |  | 10.3 nM
35 | {des‑NH2}-C[AEA][Phg]CR[Tle]-NH2 (linker 1-4 via mXylyl) [R2151] | 1940 nM | 
36 | B11 |  | > 10000 nM
37 | [Nva]CESICRV-NH2 (linker 2-6 via mXylyl) [R2009] |  | 8.6 nM
38 | B12 |  | 1750 nM
39 | MCESI[NMeC]RV-NH2 (linker 2-6 via mXylyl) [R2101] |  | 12700 nM
40 | MCEYICRV-NH2 (linker 2-6 via mXylyl) [R2089] |  | 61.9 nM
41 | B13 |  | 11.4 nM
42 | {des‑NH2}-C[Thp]A[Phg]CR[Tle]-NH2 (linker 1-5 via mXylyl) [R2095] |  | 1.6 nM
43 | Heptanoyl-C[dA][NMeS][Chg]CR[Tle]-NH2 (linker 1-5 via mXylyl) [R2148] | 28.8 nM | 
44 | [Mpa][code a]A[Phg]CR[Tle]-NH2 (linker 1-5 via mXylyl) [R2079] |  | 17.8 nM
